Article PMC5266791 (Cell Reports, 2016)

Experiments:
[1] = target: FANCB-FANCL-FAAP100 complex (human, UniProt Q8NB91;Q9NW38;Q0VG06); test: SEC
[2] = target: the molecule itself; test: negative-stain single-particle EM

Sequence of FANCB-FANCL-FAAP100 complex (Q9NW38 whole entry, chain 2 of 2): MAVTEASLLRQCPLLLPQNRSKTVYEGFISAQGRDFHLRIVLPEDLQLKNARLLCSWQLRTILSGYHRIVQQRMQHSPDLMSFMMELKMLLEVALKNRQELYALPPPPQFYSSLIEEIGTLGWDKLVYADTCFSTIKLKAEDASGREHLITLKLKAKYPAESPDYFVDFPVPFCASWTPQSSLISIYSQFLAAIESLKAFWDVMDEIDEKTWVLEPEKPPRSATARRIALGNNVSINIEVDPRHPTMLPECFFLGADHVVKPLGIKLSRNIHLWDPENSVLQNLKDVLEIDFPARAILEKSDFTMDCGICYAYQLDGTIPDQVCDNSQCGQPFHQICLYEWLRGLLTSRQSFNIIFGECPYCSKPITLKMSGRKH
Sequence of FANCB-FANCL-FAAP100 complex (Q0VG06 whole entry, chain 3 of 2): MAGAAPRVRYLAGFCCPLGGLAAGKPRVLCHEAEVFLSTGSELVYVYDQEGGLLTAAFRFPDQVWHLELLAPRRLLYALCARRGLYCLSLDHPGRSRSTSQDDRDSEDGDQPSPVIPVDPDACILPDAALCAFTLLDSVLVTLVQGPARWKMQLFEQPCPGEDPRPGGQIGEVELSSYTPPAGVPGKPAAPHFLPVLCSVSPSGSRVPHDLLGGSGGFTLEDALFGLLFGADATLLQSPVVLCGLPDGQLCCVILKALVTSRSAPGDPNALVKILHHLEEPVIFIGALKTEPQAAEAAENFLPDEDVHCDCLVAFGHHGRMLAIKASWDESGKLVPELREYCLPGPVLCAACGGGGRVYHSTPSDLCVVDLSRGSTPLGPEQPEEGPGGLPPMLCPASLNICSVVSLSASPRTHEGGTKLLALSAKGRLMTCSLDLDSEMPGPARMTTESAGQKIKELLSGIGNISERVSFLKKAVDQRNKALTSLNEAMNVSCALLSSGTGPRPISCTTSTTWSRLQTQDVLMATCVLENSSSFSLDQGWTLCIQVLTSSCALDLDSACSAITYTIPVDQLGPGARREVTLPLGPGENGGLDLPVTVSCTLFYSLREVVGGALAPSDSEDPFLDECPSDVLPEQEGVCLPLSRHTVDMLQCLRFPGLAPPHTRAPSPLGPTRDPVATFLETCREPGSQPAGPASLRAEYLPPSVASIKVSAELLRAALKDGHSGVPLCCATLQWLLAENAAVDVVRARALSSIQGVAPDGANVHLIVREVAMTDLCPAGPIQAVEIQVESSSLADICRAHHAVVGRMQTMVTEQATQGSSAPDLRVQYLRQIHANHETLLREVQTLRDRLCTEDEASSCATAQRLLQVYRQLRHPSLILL

Row | binding result [1] | Binder | stoichiometry N [2]
1 | binds | (MBP)FANCC-FANCE-FANCF complex (complex) chain 1: MAQDSVDLSCDYQFWMQKLSVWDQASTLETQQDTCLHVAQFQEFLRKMYEALKEMDSNTVIERFPTIGQLLAKACWNPFILAYDESQKILIWCLCCLINKEPQNSGQSKLNSWIQGVLSHILSALRFDKEVALFTQGLGYAPIDYYPGLLKNMVLSLASELRENHLNGFNTQRRMAPERVASLSRVCVPLITLTDVDPLVEALLICHGREPQEILQPEFFEAVNEAILLKKISLPMSAVVCLWLRHLPSLEKAMLHLFEKLISSERNCLRRIECFIKDSSLPQAACHPAIFRVVDEMFRCALLETDGALEIIATIQVFTQCFVEALEKASKQLRFALKTYFPYTSPSLAMVLLQDPQDIPRGHWLQTLKHISELLREAVEDQTHGSCGGPFESWFLFIHFGGWAEMVAEQLLMSAAEPPTALLWLLAFYYGPRDGRQQRAQTMVQVKAVLGHLLAMSRSSSLSAQDLQTVAGQGTDTDLRAPAQQLIRHLLLNFLLWAPGGHTIAWDVITLMAHTAEITHEIIGFLDQTLYRWNRLGIESPRSEKLARELLKELRTQV chain 2: MATPDAGLPGAEGVEPAPWAQLEAPARLLLQALQAGPEGARRGLGVLRALGSRGWEPFDWGRLLEALCREEPVVQGPDGRLELKPLLLRLPRICQRNLMSLLMAVRPSLPESGLLSVLQIAQQDLAPDPDAWLRALGELLRRDLGVGTSMEGASPLSERCQRQLQSLCRGLGLGGRRLKSPQAPDPEEEENRDSQQPGKRRKDSEEEAASPEGKRVPKRLRCWEEEEDHEKERPEHKSLESLADGGSASPIKDQPVMAVKTGEDGSNLDDAKGLAESLELPKAIQDQLPRLQQLLKTLEEGLEGLEDAPPVELQLLHECSPSQMDLLCAQLQLPQLSDLGLLRLCTWLLALSPDLSLSNATVLTRSLFLGRILSLTSSASRLLTTALTSFCAKYTYPVCSALLDPVLQAPGTGPAQTELLCCLVKMESLEPDAQVLMLGQILELPWKEETFLVLQSLLERQVEMTPEKFSVLMEKLCKKGLAATTSMAYAKLMLTVMTKYQANITETQRLGLAMALEPNTTFLRKSLKAALKHLGP chain 3: MESLLQHLDRFSELLAVSSTTYVSTWDPATVRRALQWARYLRHIHRRFGRHGPIRTALERRLHNQWRQEGGFGRGPVPGLANFQALGHCDVLLSLRLLENRALGDAARYHLVQQLFPGPGVRDADEETLQESLARLARRRSAVHMLRFNGYRENPNLQEDSLMKTQAELLLERLQEVGKAEAERPARFLSSLWERLPQNNFLKVIAVALLQPPLSRRPQEELEPGIHKSPGEGSQVLVHWLLGNSEVFAAFCRALPAGLLTLVTSRHPALSPVYLGLLTDWGQRLHYDLQKGIWVGTESQDVPWEELHNRFQSLCQAPPPLKDKVLTALETCKAQDGDFEVPGLSIWTDLLLALRSGAFRKRQVLGLSAGLSSV | 
2 |  | FANCB (natural protein) MTSKQAMSSNEQERLLCYNGEVLVFQLSKGNFADKEPTKTPILHVRRMVFDRGTKVFVQKSTGFFTIKEENSHLKIMCCNCVSDFRTGINLPYIVIEKNKKNNVFEYFLLILHSTNKFEMRLSFKLGYEMKDGLRVLNGPLILWRHVKAFFFISSQTGKVVSVSGNFSSIQWAGEIENLGMVLLGLKECCLSEEECTQEPSKSDYAIWNTKFCVYSLESQEVLSDIYIIPPAYSSVVTYVHICATEIIKNQLRISLIALTRKNQLISFQNGTPKNVCQLPFGDPCAVQLMDSGGGNLFFVVSFISNNACAVWKESFQVAAKWEKLSLVLIDDFIGSGTEQVLLLFKDSLNSDCLTSFKITDLGKINYSSEPSDCNEDDLFEDKQENRYLVVPPLETGLKVCFSSFRELRQHLLLKEKIISKSYKALINLVQGKDDNTSSAEEKECLVPLCGEEENSVHILDEKLSDNFQDSEQLVEKIWYRVIDDSLVVGVKTTSSLKLSLNDVTLSLLMDQAHDSRFRLLKCQNRVIKLSTNPFPAPYLMPCEIGLEAKRVTLTPDSKKEESFVCEHPSKKECVQIITAVTSLSPLLTFSKFCCTVLLQIMERESGNCPKDRYVVCGRVFLSLEDLSTGKYLLTFPKKKPIEHMEDLFALLAAFHKSCFQITSPGYALNSMKVWLLEHMKCEIIKEFPEVYFCERPGSFYGTLFTWKQRTPFEGILIIYSRNQTVMFQCLHNLIRILPINCFLKNLKSGSENFLIDNMAFTLEKELVTLSSLSSAIAKHESNFMQRCEVSKGKSSVVAAALSDRRENIHPYRKELQREKKKMLQTNLKVSGALYREITLKVAEVQLKSDFAAQKLSNL | 2
